{"source": "patent US20250296971A1", "about": "“GASTRIC INHIBITORY PEPTIDE RECEPTOR LIGANDS” (priority 2021, published 2025)", "molecules": {"B1": {"name": "Ac-Asp-Eaa-Eaa-Nmg-Glu-leu-[Cys(2Lut)-Thp-Leu-Ile-Cys]-NH2 (peptide)", "peptide": "Ac-D[Phe(3,4-Cl2)][Phe(3,4-Cl2)][Sar]E[dL]C[Thp]LIC-NH2", "modifications": "linker 7-11 via Pyridine(2,6-diCH2)", "SMILES": "CC[C@H](C)[C@@H]1NC(=O)[C@H](CC(C)C)NC(=O)C2(CCOCC2)NC(=O)[C@@H](NC(=O)[C@@H](CC(C)C)NC(=O)[C@H](CCC(=O)O)NC(=O)CN(C)C(=O)[C@H](Cc2ccc(Cl)c(Cl)c2)NC(=O)[C@H](Cc2ccc(Cl)c(Cl)c2)NC(=O)[C@H](CC(=O)O)NC(C)=O)CSCc2cccc(n2)CSC[C@@H](C(N)=O)NC1=O"}, "B2": {"name": "DOTA-Ttds-Asp-6Fw-Trp-Pro-Glu-leu-[Cys(3MeBn)-Aib-Leu-Ile-AET] (peptide)", "peptide": "{DOTA-Ttds}-D[Trp(6-F)]WPE[dL]C[Aib]LI[Cysteamide]", "modifications": "linker 7-11 via mXylylene"}, "B3": {"name": "DOTA-APAc-Asp-Gly-5Clw-Hyp-Glu-leu-[Cys(2Lut)-Thp-Leu-Ile-AET] (peptide)", "peptide": "{DOTA-APAc″}-DG[Trp(5-Cl)][Hyp]E[dL]C[Thp]LI[Cysteamide]", "modifications": "linker (positions not given here) via Pyridine(2,6-diCH2); not fully specified (bridges); printed as DOTA-APAc-Asp-Gly-5Clw-Hyp-Glu-leu-[Cys(2Lut)-Thp-Leu-Ile-AET]"}, "B4": {"name": "Ac-Cya-Gly-5Clw-Hyp-Glu-leu-[Cys(2Lut)-Aib-Leu-Ile-AET] (peptide)", "peptide": "Ac-[Cya]G[Trp(5-Cl)][Hyp]E[dL]C[Aib]LI[Cysteamide]", "modifications": "linker 7-11 via 2Lut″"}, "B5": {"name": "Ac-Asp-Trp-Mcf-Hyp-Glu-leu-[Cys(2Lut)-Thp-Leu-Ile-Cys]-NH2 (peptide)", "peptide": "Ac-DW[Phe(3-Cl)][Hyp]E[dL]C[Thp]LIC-NH2", "modifications": "linker 7-11 via 2Lut″"}, "B6": {"name": "Ac-Asp-Trp-5Clw-Hyp-Glu-leu-[Cys(2Lut)-Thp-Leu-Ser-Cys]-NH2 (peptide)", "peptide": "Ac-DW[Trp(5-Cl)][Hyp]E[dL]C[Thp]LSC-NH2", "modifications": "linker 7-11 via Pyridine(2,6-diCH2)", "SMILES": "CC(=O)N[C@@H](CC(=O)O)C(=O)N[C@@H](Cc1c[nH]c2ccccc12)C(=O)N[C@@H](Cc1c[nH]c2ccc(Cl)cc12)C(=O)N1C[C@H](O)C[C@H]1C(=O)N[C@@H](CCC(=O)O)C(=O)N[C@H](CC(C)C)C(=O)N[C@H]1CSCc2cccc(n2)CSC[C@@H](C(N)=O)NC(=O)[C@H](CO)NC(=O)[C@H](CC(C)C)NC(=O)C2(CCOCC2)NC1=O"}, "B7": {"name": "Ac-Asp-Eaa-Eaa-Hyp-Glu-leu-[Cys(2Lut)-Thp-Leu-Ile-Cys]-NH2 (peptide)", "peptide": "Ac-D[Phe(3,4-Cl2)][Phe(3,4-Cl2)][Hyp]E[dL]C[Thp]LIC-NH2", "modifications": "linker 7-11 via Pyridine(2,6-diCH2)", "SMILES": "CC[C@H](C)[C@@H]1NC(=O)[C@H](CC(C)C)NC(=O)C2(CCOCC2)NC(=O)[C@@H](NC(=O)[C@@H](CC(C)C)NC(=O)[C@H](CCC(=O)O)NC(=O)[C@@H]2C[C@@H](O)CN2C(=O)[C@H](Cc2ccc(Cl)c(Cl)c2)NC(=O)[C@H](Cc2ccc(Cl)c(Cl)c2)NC(=O)[C@H](CC(=O)O)NC(C)=O)CSCc2cccc(n2)CSC[C@@H](C(N)=O)NC1=O"}, "B8": {"name": "Ac-Asp-Trp-5Clw-Hyp-Glu-leu-[Cys-Thp-Leu-Ile-Cys]-NH2 (peptide)", "peptide": "Ac-DW[Trp(5-Cl)][Hyp]E[dL]C[Thp]LIC-NH2", "modifications": "disulfide 7-11"}, "B9": {"name": "Ac-Asp-Ocf-5Clw-Hyp-Glu-leu-[Cys(2Lut)-Thp-Leu-Ile-Cys]-lys(DOTA)-NH2 (peptide)", "peptide": "Ac-D[Phe(2-Cl)][Trp(5-Cl)][Hyp]E[dL]C[Thp]LIC", "modifications": "linker 7-11 via Pyridine(2,6-diCH2); not fully specified (C-terminus)"}}, "note": "*1 amine or outer side, *2 acyl side, *3 side chain or, on linkers, in order; H or OH if unused. Bridges are numbered along the chain shown (N, C = ends). Primed or numbered codes have the meaning given here. Where no end group is shown, it is not given here. [ ]: non-standard residue; d: D form. The star is where a group is joined. Ttds = 1,13-diamino-4,7,10-trioxatridecan-succinamic acid, NCCCOCCOCCOCCCNC(=O)CCC(=O)*; APAc″ = 4-amino-1-carboxymethylpiperidine, NC1CCN(CC(=O)*)CC1; DOTA = O=C(O)CN1CCN(CC(=O)O)CCN(CC(=O)*)CCN(CC(=O)O)CC1; Trp(5-Cl) = N[C@@H](Cc1c[nH]c2ccc(Cl)cc12)C(=O)O; Phe(3,4-Cl2) = N[C@@H](Cc1ccc(Cl)c(Cl)c1)C(=O)O; Pyridine(2,6-diCH2) = c1cc(C[*:1])nc(C[*:2])c1; Trp(6-F) = N[C@@H](Cc1c[nH]c2cc(F)ccc12)C(=O)O; 2Lut″ = 2,6-lutidylidene linking two thiols; Phe(3-Cl) = N[C@@H](Cc1cccc(Cl)c1)C(=O)O; Phe(2-Cl) = N[C@@H](Cc1ccccc1Cl)C(=O)O; mXylylene = c1cc(C[*:1])cc(C[*:2])c1; Cya = N[C@@H](CS(=O)(=O)O)C(=O)O; Hyp = O=C(O)[C@@H]1C[C@@H](O)CN1; Cysteamide = C(CS[*:3])N[*:1]; Thp = NC1(C(=O)O)CCOCC1; Aib = CC(C)(N)C(=O)O; Sar = CNCC(=O)O"}
{"biological_target": "human Gastric Inhibitory Peptide Receptor (GIPR) (human) (UniProt P48546)", "sequence (P48546 22-466 limits assumed)": "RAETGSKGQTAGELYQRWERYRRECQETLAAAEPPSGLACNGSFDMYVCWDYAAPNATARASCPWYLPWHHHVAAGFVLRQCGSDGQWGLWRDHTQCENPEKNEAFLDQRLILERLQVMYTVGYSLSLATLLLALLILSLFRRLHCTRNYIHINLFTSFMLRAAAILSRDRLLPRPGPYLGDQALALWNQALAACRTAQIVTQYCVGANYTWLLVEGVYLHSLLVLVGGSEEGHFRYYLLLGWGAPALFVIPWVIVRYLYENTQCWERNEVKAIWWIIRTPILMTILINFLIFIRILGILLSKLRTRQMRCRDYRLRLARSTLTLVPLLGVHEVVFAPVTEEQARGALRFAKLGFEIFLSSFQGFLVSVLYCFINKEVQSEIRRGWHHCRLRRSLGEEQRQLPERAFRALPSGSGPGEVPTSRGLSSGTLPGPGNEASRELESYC", "experiment": "FACS competition vs biotinylated GIP-057 on CHO-K1-hGIPR cells; category D: pIC50 <=6.0", "units": {"pIC50": "pic50"}}
{"molecule": "B1", "pIC50": "< 6"}
{"biological_target": "human Gastric Inhibitory Peptide Receptor (GIPR) (human) (UniProt P48546)", "experiment": "FACS competition vs biotinylated GIP-057 on CHO-K1-hGIPR cells; category C: pIC50 6.1-7.0", "units": {"pIC50": "pic50"}}
{"molecule": "H-Met-Tyr-Asp-Trp-Trp-Pro-Glu-Leu-[Cys(2MeBn)-Ala-Leu-Ile-Cys]-NH2 (peptide)", "pIC50": "6.1 to 7"}
{"molecule": "B2", "pIC50": "6.1 to 7"}
{"molecule": "B3", "pIC50": "6.1 to 7"}
{"molecule": "B4", "pIC50": "6.1 to 7"}
{"molecule": "B5", "pIC50": "6.1 to 7"}
{"molecule": "B6", "pIC50": "6.1 to 7"}
{"molecule": "B7", "pIC50": "6.1 to 7"}
{"molecule": "B8", "pIC50": "6.1 to 7"}
{"molecule": "B9", "pIC50": "6.1 to 7"}
